Experiment [1] deals with anterior pituitary cells of lactating rats. As to conditions: anterior pituitary cells of lactating rats in vitro; cited from earlier work.
Experiment [2] addresses T1, GPR10 (Mus musculus, UniProt Q6VMN6).
T1 construct: from tissue; host or cells: brain of living C57BL/6J mice (lean and ob/ob), intracerebroventricular dosing
T1 sequence (Q6VMN6 1-370): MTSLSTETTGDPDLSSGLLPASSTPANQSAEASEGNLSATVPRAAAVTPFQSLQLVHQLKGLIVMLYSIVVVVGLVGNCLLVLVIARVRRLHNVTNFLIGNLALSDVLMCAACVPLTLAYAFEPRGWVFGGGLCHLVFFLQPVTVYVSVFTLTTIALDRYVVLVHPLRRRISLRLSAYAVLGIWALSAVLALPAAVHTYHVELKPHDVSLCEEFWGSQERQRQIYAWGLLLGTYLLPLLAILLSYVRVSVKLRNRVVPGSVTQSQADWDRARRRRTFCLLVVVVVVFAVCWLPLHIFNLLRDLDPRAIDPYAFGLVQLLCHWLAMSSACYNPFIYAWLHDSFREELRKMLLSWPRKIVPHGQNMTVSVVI
In words: Metabolic rate of mice in an open-circuit calorimeter after intracerebroventricular PrRP. Format: in vivo. As to conditions: 5 μg PrRP intracerebroventricular vs saline. Here is the method:
The effect of a 5 μg dose of PrRP on the metabolic rate of male mice denied or permitted access to food was investigated as follows. Male C57BL/6J mice maintained as described above were placed in an open-circuit calorimeter coupled to a feeding monitor. The mice were administered 5 μg of PrRP or saline intracerebroventricularly at 1 hr and 45 min after the start of metabolic monitoring. One group (n=6) of mice was allowed access to food and one group of mice (n=6) was not allowed access to food. Respiratory quotient was calculated as the ratio of CO2 production/O2 consumption. Metabolic rate (kcal/g/h) was computed based on O2 consumption and respiratory rate quotient.

Another experiment concerns the target T2, hGR3 (Homo sapiens, UniProt P49683).
T2 sequence (P49683 1-370): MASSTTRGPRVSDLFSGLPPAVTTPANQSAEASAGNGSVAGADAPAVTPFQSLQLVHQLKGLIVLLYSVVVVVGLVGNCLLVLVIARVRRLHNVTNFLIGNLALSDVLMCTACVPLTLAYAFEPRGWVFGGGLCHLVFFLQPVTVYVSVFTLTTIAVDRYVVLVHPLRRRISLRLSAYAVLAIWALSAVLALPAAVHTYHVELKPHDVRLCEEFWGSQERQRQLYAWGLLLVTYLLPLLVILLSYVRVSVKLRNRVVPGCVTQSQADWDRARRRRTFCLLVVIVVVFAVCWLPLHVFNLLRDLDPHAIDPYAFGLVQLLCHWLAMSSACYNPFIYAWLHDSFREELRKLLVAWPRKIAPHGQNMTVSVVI
As to conditions: receptor expressed in human pituitary, nearly identical to GPR10; cited from earlier work.

Experiment [3] deals with T1, GPR10. As to the kind of experiment: Food intake after intracerebroventricular injection of PrRP in mice. Format: in vivo. The note with it: 0.1, 1, 5, 10 mg PrRP intracerebroventricular vs saline, measured for two hours after treatment. Here is the method:
A 31 amino acid amidated synthetic peptide having the sequence of rat PrRP ([…]-NHz; SEQ ID NO:4; Hinuma et al., (1998) Nature 393:272-76) was used to examine the effect of GPR10 modulators on food intake.
Male and female lean and male obese ob/ob C57BL/6J mice were individually housed in macrolon cages (22±2° C.; 12:12 hr light:dark cycle with lights off at 6 pm). Tap water and mouse chow were given ad libitum. Mice were stereoaxically implanted with a chronic guide cannula aimed to the third ventricle (intracerebroventricular) one week prior to the initiation of the experiment.
Mice (15/group) were treated with […] of PrRP peptide or saline (control) by intracerebroventricular injections at 9:00 am. Food intake was measured for two hours after treatment.

No end group written: not given here.

Turning to “PrRP: 31 amino acid amidated synthetic peptide having the sequence of rat PrRP (SRAHQHSMETRTPDINPAWYTGRGIRPVGRF-NHz; SEQ ID NO:4); a GPR10 ligand (SRAHQHSMETRTPDINPAWYTGRGIRPVGRF-NH2; listed as Mus musculus)”, the release of prolactin result in experiment [1] is listed as “stimulates release of prolactin”. In addition, the metabolic rate result in the experiment with GPR10 [2] (lean male C57BL/6J mice having access to food, FIG. 7) is recorded as “increases the metabolic rate”; with GPR10 [2] (lean male C57BL/6J mice having no access to food, FIG. 6), “increases the metabolic rate”. The “binding to hGR3” value with hGR3 was “binds to hGR3”. For the same substance, the food intake result with GPR10 [3] (lean female C57BL/6J mice, FIG. 4) is reported as “increased food intake”; in the experiment with GPR10 [3] (lean male C57BL/6J mice, FIG. 3) it was “increased food intake”; in the experiment with GPR10 [3] (male obese ob/ob C57BL/6J mice, FIG. 5), “increased food intake”.

The values above are taken from US6537765B2, “GPR10 as a target for identifying weight modulating compounds” (Millennium Pharmaceuticals, Inc., priority 1998, dated 2003).
